Here are results for two molecules from patent US11261232B2, “TNFRSF14 / HVEM proteins and methods of use thereof” (MEMORIAL SLOAN KETTERING CANCER CENTER, priority 2015, dated 2022).

Assay [1] deals with human and mouse lymphoma cell lines. Briefly: Cell proliferation in panel of BTLAhi and BTLAlo lymphoma cell lines. The assay is classed as cell-based. As to the method:
(§1) FIG. 7A-H. The solHVEM (either Leu39-Va1202 or Pro37-Va1202) protein restores tumor suppressive effects of HVEM.
FIG. 17. sTNFRSF14 inhibits the growth of lymphoma cell lines in vitro. Three lymphoma cell lines (Myc-Bc12, LY-10, Granta) were plated at 1×10^5 cells/ml and were treated with sTNFRSF14 (5 ug/ml) or vehicle each day for 72 hours. After 72 hours cells were counted using a hemocytometer. Each bar represents the average of three independent experiments.
(§2) Building on these findings, experiments were performed to test whether solHVEM would have any single agent activity against lymphomas. First, the expression of the BTLA receptor was characterized across a panel of human and mouse lymphoma (mostly DLBCL) cell lines. […] Next, experiments were performed to test if solHVEM had any effect on established BTLA^hi lymphomas in vivo. Briefly, aggressive MYC/BCL2 double positive murine lymphoma cells that express BTLA (BTLA^hi) were transplanted into the flanks of J:Nu nude mice and mice were treated with 20 μg of solHVEM or vehicle (PBS) every three days for a total four times once the engrafted tumors reached a volume of ˜50 mm3. […] Similar results were obtained both in vitro and in vivo with a different soluble HVEM molecule consisting of the extracellular region from amino acids Pro37 to Va1202 (SEQ ID NO. 6).
Lymphoma cell lines DoHH2, Ly-10, Granta, Su-DHL-6 were maintained in RPMI 1640 with 10% fetal bovine serum, 1% L-Glutamine and 1% penicillin/streptomycin. Mouse lymphoma cell line myc-bcl2 was maintained in IMDM-DMEM (50:50) with 10% fetal bovine serum, 1% L-Glutamine, and 1% penicillin/streptomycin. Cell lines were seeded at 5×10^5/mL and were treated with 5 m/m1 of sHVEM. After 24 hours cell number was counted using hemocytometer for a total of 72 hours after treatment.

For assay [2], the system named is DOHH2 cells. Briefly: BTK, SYK and ERK activation in anti-IgG-stimulated DOHH2 cells. The format is cell-based, human. As for the experimental part:
as §1
FIG. 14A-E. Effect of solHVEM (either Leu39-Va1202 or Pro37-Va1202) on murine and human FL B cells. FIG. 14A and FIG. 14B, Quantification of pSYK levels in DOHH2 lymphoma cells that were stimulated with anti-IgG in the presence or absence of Pro37-Va1202 solHVEM (5 μg/ml) (* indicated p<0.01); representative FACS measurement in (FIG. 14B) FIG. 14C, FACS analysis of BTLA expression in a panel of lymphoma lines including murine myc/bc12 lymphomas and human lines (DOHH2, Su-DHL6, Granta, Ly10); FIG. 14D, representative pictures of tumors from mice; FIG. 14E, tumor weight of mouse tumors (n=3, p<0.01).
FIG. 15A-B. sTNFRSF14 opposes B cell receptor signaling in lymphoma B cells by decreasing P-BTK. A B-cell lymphoma cell line (DOHH2) was pre-treated for one hour with the soluble ectodomain of TNFRSF14 (sTNFRSF14) Pro 37-Val 202 (5 ug/ml) or the BTK inhibitor Ibrutinib (10nmM) and then stimulated for 5 mins at 37° C. with anti-IgG molecule. The cells were subsequently fixed and permeabilized and probed for pBTK expression using phospo-flow antibodies and analyzed on BD Fortessa. FIG. 15A, Representative FACS plots. FIG. 15B, Quantification of mean fluorescence intensity of phospho-BTK after treatment with vehicle or drug.
FIG. 16A-B. sTNFRSF14 opposes B-cell receptor signaling in lymphoma B cells by decreasing P-SYK. A B-cell lymphoma cell line (DOHH2) was pre-treated for one hour with the soluble ectodomain of TNFRSF14 (sTNFRSF14) Pro37-Val 202 (5 ug/ml) or the BTK inhibitor Ibrutinib (10nmM) and then stimulated for 5 mins at 37° C. with anti-IgG molecule. The cells were subsequently fixed and permeabilized and probed for pSYK expression using phospo-flow antibodies and analyzed on a BD Fortessa. FIG. 16A, Representative FACS plots. FIG. 16B, Quantification of mean fluorescence intentisty of phospho-SYK after treatment with vehicle or drug.
as §2
For phospho-BTK, phospho-Syk staining, cells were pretreated for 60 min with either 5 μg/mL of sHVEM (R&D Systems) or 10 ng/mL Ibrutinib (ChemieTek PCI-32765) at 37° C. Cells were fixed by adding equal volume of formaldehyde directly to the cells. Cells were incubated for 10 minutes at room temperature, washed 2× in PBS and the residual cells were permeabilized in 1 mL of ice cold methanol (100%) for 30 min on ice. Cells were then washed twice and stained with the phospho-BTK (Bd Biosciences clone N35-88) and phospho-Syk (Bd Biosciences clone 17 A/P-Zap70) and analyzed on BD LSRFortessa. […]

Where [3] appears, read: DOHH2 (BTLAhi, HVEM deleted), 10 μg/ml.

As for “solHVEM: Leu39-Val202 soluble HVEM ectodomain polypeptide of SEQ ID NO. 8”, the “growth of BTLAhi lymphoma cells” value in assay [1] (BTLAhi lines (DOHH2, SU-DHL6, murine MYC/BCL2), 5 μg/ml) is listed as “significant growth inhibition”. In addition, the “growth of BTLAlo lymphoma cells” value in assay [1] (BTLAlo lines (Granta, Su-DHL10), 5 μg/ml) is listed as “not affected”. In assay [2] (setting [3]), the ERK activation result was “readily blocked” and the SYK activation entry is given as “readily blocked”.

B1: sTNFRSF14: Pro37-Val202 soluble HVEM ectodomain polypeptide of SEQ ID NO. 6 (protein, listed as Homo sapiens)
chain: PALPSCKEDEYPVGSECCPKCSPGYRVKEACGELTGTVCEPCPPGTYIAHLNGLSKCLQCQMCDPAMGLRASRNCSRTENAVCGCSPGHFCIVQDGDHCAACRAYATSSPGQRVQKGGTESQDTLCQNCPPGTFSPNGTLEECQHQTKCSWLVTKAGAGTSSSHWV
B1: the “cell growth in cell lines that did not express BTLA” value in assay [1] (5 ug, three days) is listed as “did not inhibit cell growth”. Also, in assay [1] (Myc-Bc12 cell line, 5 ug, three days), the “cell growth in cell lines with highest BTLA levels” value is “largest effect on growth”. Moreover, the BTK activation result in assay [2] (setting [3]) was “readily blocked”. Further, the “activation (phosphorylation) of BTK” value in assay [2] (DOHH2, one hour pre-incubation, 5 ug/ml, anti-IgG) is recorded as “effectively blocked”. In addition, the “levels of phosphorylated SYK” value in assay [2] (DOHH2, one hour pre-treatment, 5 ug/ml, anti-IgG) is “inhibited”.
